Measurements taken from patent US20030166587A1.
Non-standard residues stand in square brackets, D forms with d. No end group written: not given here. pS = N[C@@H](COP(=O)(O)O)C(=O)O

Molecular target: specific IκB E3 ubiquitin ligase activity of HeLa extract
Assay: cell-based or functional assay

Binder | IC50 of inhibition of pIκBα ubiquitination (in vitro ubiquitination assay in HeLa extract) [µM] | TNFα-stimulated NF-κB activation (nuclear p65 staining) abolished, percent of microinjected HeLa cells [%] | inhibition of E-selectin expression, percent of microinjected HUVEC [%]
CKKERLLDDRHD[pS]GLD[pS]MKDEE [pp21, doubly phosphorylated IκBα peptide] | 5 | 50 to 70 | 70 to 80
CERLLDDRHD[pS]GLD[pS]MKDEE [pp19, doubly phosphorylated IκBα peptide] | 5 | – | –
